The results in this text go back to article PMC9894130, “SV40 T-antigen uses a DNA shearing mechanism to initiate origin unwinding” (Proceedings of the National Academy of Sciences of the …, 2022).

This data set concerns the molecule itself. Kind of data set: cryo-EM structure; T-Ag^131–627 incubated with AMP-PNP in the absence of DNA (apo form); 3D map at 5.6 Å, rigid-body docking of crystal structures of smaller fragments.

B1: SV40 large T-Antigen helicase, residues 131-627 (T-Ag^131–627) (domain or fragment)
chain: KVEDPKDFPSELLSFLSHAVFSNRTLACFAIYTTKEKAALLYKKIMEKYSVTFISRHNSYNHNILFFLTPHRHRVSAINNYAQKLCTFSFLICKGVNKEYLMYSALTRDPFSVIEESLPGGLKEHDFNPEEAEETKQVSWKLVTEYAMETKCDDVLLLLGMYLEFQYSFEMCLKCIKKEQPSHYKYHEKHYANAAIFADSKNQKTICQQAVDTVLAKKRVDSLQLTREQMLTNRFNDLLDRMDIMFGSTGSADIEEWMAGVAWLHCLLPKMDSVVYDFLKCMVYNIPKKRYWLFKGPIDSGKTTLAAALLELCGGKALNVNLPLDRLNFELGVAIDQFLVVFEDVKGTGGESRDLPSGQGINNLDNLRDYLDGSVKVNLEKKHLNKRTQIFPPGIVTMNEYSVPKTLQARFVKQIDFRPKDYLKHCLERSEFLLEKRIIQSGIALLLMLIWYRPVAEFAQSIQSRIVEWKERLDKEFSLSVYQKMKFNVAMGIGVLD
notes: Simian Virus 40 large T-Antigen, residues 131-627; lacks the N-terminal DnaJ-homology domain and the extreme C-terminal host-range determination region; holds OBD, ZBD and AAA+ domains; also called J-domain truncated T-Ag; source: expressed in E. coli (details in the SI Appendix)
Turning to B1, the “stoichiometry N” value was 6.
